{"source": "paper PMC6859894", "about": "(Nature, 2019)", "proteins": {"B1": {"name": "chicken STING (Gallus gallus), full-length, C-terminal Flag tag (natural protein, chicken (Gallus gallus), UniProt E1C7U0 1-379, looked up)", "chain": "MPQDPSTRSSPARLLIPEPRAGRARHAACVLLAVCFVVLFLSGEPLAPIIRSVCTQLAALQLGVLLKGCCCLAEEIFHLHSRHHGSLWQVLCSCFPPRWYLALLLVGGSAYLDPPEDNGHSPRLALTLSCLCQLLVLALGLQKLSAVEVSELTESSKKNVAHGLAWSYYIGYLKVVLPRLKECMEELSRTNPMLRAHRDTWKLHILVPLGCDIWDDLEKADSNIQYLADLPETILTRAGIKRRVYKHSLYVIRDKDNKLRPCVLEFASPLQTLCAMSQDDCAAFSREQRLEQARLFYRSLRDILGSSKECAGLYRLIAYEEPAEPESHFLSGLILWHLQQQQREEYMVQEELPLGTSSVELSLQVSSSDLPQPLRSDCP"}}, "key": {"[1]": {"target": "the molecule itself", "experiment": "cryo-EM structure"}, "[2]": {"target": "the molecule itself", "experiment": "cryo-EM structure", "remark": "listed apart in the source"}}, "note": "Where two headings read alike, the source gives them in different places.", "data": [{"protein": "B1", "values": [{"measurement": "stoichiometry N", "setting": "[1]", "value": 2}, {"measurement": "ratio of dimer to higher-order oligomers in the micrographs", "setting": "[2]", "value": "~4 dimer : higher-order oligomers"}, {"measurement": "stoichiometry N", "setting": "[2]", "value": 4}]}]}
